The text below walks through data of paper PMC7666581, “Atypical chemoreceptor arrays accommodate high membrane curvature” (Nature Communications, 2020).

One data set addresses T1, CheR (classical Td CheR) (Treponema denticola, UniProt Q73PZ7).
T1 construct: purified CheR; cloning and tag not described in main text; printed residues R79, Gly152, Val180, Y218
T1 sequence (Q73PZ7 1-271): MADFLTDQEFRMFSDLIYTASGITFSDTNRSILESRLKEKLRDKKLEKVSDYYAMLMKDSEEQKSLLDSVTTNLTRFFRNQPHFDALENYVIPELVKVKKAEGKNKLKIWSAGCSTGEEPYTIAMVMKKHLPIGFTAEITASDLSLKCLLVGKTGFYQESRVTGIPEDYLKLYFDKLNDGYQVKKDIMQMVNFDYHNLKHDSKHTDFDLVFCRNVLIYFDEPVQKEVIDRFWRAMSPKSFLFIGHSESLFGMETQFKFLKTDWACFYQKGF
In words: isothermal titration calorimetry. Type of data set: binding.

The target of data set [1] is T2, CheW-CheRlike (CheW-Rlike) (Treponema denticola, UniProt F7IUZ1).
T2 construct: gene cheW-1; full-length fusion: N-terminal CheW domain, 28-residue linker, C-terminal CheR-like domain; poly-His tag (pET28a), E. coli BL21(DE3); mainly monomer
T2 sequence (F7IUZ1 1-444): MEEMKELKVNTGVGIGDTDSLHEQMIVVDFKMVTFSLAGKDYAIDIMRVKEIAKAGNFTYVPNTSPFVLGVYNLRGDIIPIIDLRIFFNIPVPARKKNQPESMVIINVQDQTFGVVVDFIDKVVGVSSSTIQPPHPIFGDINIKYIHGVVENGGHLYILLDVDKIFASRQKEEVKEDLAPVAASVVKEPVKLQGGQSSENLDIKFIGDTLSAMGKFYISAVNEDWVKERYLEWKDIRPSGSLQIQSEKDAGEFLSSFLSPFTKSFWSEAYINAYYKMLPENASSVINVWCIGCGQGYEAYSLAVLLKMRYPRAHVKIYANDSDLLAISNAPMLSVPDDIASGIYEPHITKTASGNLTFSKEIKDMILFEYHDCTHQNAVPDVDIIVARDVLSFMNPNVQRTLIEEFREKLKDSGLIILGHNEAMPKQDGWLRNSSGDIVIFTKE
In words: isothermal titration calorimetry. Type of data set: binding. A general note: ITC needs no label: the signal is the heat of the interaction.

In data set [2] the target is Treponema denticola histidine kinase CheA (Treponema denticola) (UniProt O85747). In words: SEC-MALS; 25 °C; each sample 10 mg/mL; 50 mM MOPS pH 7.5, 150 mM KCl, 5 mM MgCl2; mixed sample 1:1 molar CheA:CheW-R_(like); CheW-R_(like) pre-incubated 15 min with 5 mM DTT; GE S200 Increase (10/300). In general terms: Size exclusion chromatography separates by hydrodynamic size, large species first.

Data set [3] concerns the molecule itself. The data set is described as above.
Data set [4] concerns the molecule itself. The data set is described as follows: crystal structure; isolated P3 domain at 32 mg/ml, hanging drop, 0.1 M Imidazole pH 7.0, 25% PEG 400; data cut off at 1.5 Å.

As for `C[S+](CC[C@H](N)C(=O)O)C[C@H]1O[C@@H](n2cnc3c(N)ncnc32)[C@H](O)[C@@H]1O` (some centres unmarked) [S-adenosylmethionine], the values for the Kd (on CheR (classical Td CheR); in data set [1]) were 20 ± 3.7 µM and 8.8 ± 1.9 µM, respectively. For the molecule “Treponema denticola CheW-CheR_(like) protein (TDE1492) (natural protein)”, the stoichiometry N (CheW-R subunit per CheA dimer) in data set [2] stood at 1.

B1: Treponema denticola histidine kinase CheA (enzyme, UniProt O85747 1-801, looked up)
chain: MSDYLDINNEELLKDFFSEAEQQVEILESNVLVIEQNPEDRNSIDEIFRAAHTLKGGSATVEMLELSKFTHAMEDLLDEIRSGSVKVTGETVDLLLKSIDIIKLMLDARASGSIYSDDVSGIVNQLRSFIPAKAEKKSSKASAPKVSIPASVSPVSAPKVQASASNLDIKDYFSEYEILELAETIQKGEDLYAVIVKFDESNLMNSVGGIQVFAALKDYGSVLKTVPDFDALYEDEFHETVIYFLSSASDSKILEKAAFIGDVTLSASAERLDIKDKTPESPKPAKAAPAQSAPEASVSEVKVSEKTEEKPVQESKEQPSKPEKKQSQTSPQGSGHSSGSILRVDANRIDYLLNLVSETVITKASLNQSTIEFAELYDKFQNSSTIYKDKTRRLLDKMPEYLEKIQQGYDINSIKQDVLNEYSSLLEVFGDFDSLMKAAVTKFKSSSQNLGRISGELQEGVMKIRMVPISQIFSRFPRVVRDLSRDLNKNVQLVIEGEDTELDKSVVEDLLDPIMHCVRNSLDHGVESPEVRKGLGKPEQGILLLKASNEGNMIVIEVADDGHGIDVEAVKQKAVERGILHPNKSLTDVEAFQLVFAPGFSTSKTISSVSGRGVGLDVVKTHIEKLNGTVMVESEPNVGTRFIIKLPLTLAIIQGLLIRVGDEVYSIPITSVIESHRVKPDEINRIDNYEVFNVRDEVYSLLRLNRLFGITSAETDDDGYNYIVVVGTEEKKVGLMVDSLIGEEAVVIKPLKDQFTNSPGIAGASILGDGSVSLIIDVAQLLELGLKQEMQARERREASIW
notes: Histidine kinase CheA of Treponema denticola ATCC 35405, the only CheA homolog in the genome; amplified from Td genomic DNA; Cloned NdeI/BamHI into pet28a; co-transcribed with TDE1492; also called Td CheA; CheA-F2; source: E. coli BL21-DE3, purified (Nickel-NTA, size exclusion)
In the case of B1, the stoichiometry N (as a rule, a count of units in the complex or per binding partner) in data set [3] was 2.

B2: Treponema denticola CheA P3 domain (dimerization domain) (domain or fragment)
chain: SILRVDANRIDYLLNLVSETVITKASLNQSTIEFAELYDKFQNSSTIYKDKTRRLLDKMPEYLEKIQQGYDINSIKQDVLNEYSSLLEVFGDFDSLMKAAVTKFKSSSQNLGRISGELQEGVMKIRMVP
notes: P3 (dimerization) domain of Treponema denticola CheA, with about 50 additional residues joining the canonical P3 helices; Cloned NdeI/EcoRI into pet28a; The printed residue number Tyr83 probably counts on the deposited construct and not on whole CheA; also called Td P3 domain; isolated P3 domain; source: E. coli BL21-DE3, purified (Nickel-NTA, size exclusion)
In the case of B2, the binding result in data set [4] is reported as “binds”.
